The text below walks through data of publication PMC5108039, “Functional and Structural Characterization of a Novel HLA-DRB1*04:01-Restricted α-Enolase T Cell Epitope in Rheumatoid Arthritis” (Frontiers in Immunology, 2016).

Read-outs that look alike come from different tables or passages of the source. Square brackets hold non-standard residues; d marks the D form. Ends that are not written are not given here. Peptide text beside a SMILES is read from it. Cit = NC(=O)NCCC[C@H](N)C(=O)O Bounds are passed on as bounds.

Test [1] concerns the target HLA-DRB1*04:04 (Homo sapiens, UniProt P01903+P01911, A100R/A169T/F76Y/I96L/K127E/L162R/M171V/N62H/P40V/Q125Y/R42H/S133A/S149N/S66Y/V209L/W38E). Briefly: Competition peptide-binding assay, HLA-DRB1*04:04. As for the experimental part: Stepwise binding analysis of 15-mer peptides derived from both native and citrullinated α-enolase to HLA-DRB1*01, *04:01, and *04:04 was performed using the ProImmune Class II Reveal assay (ProImmune, Oxford, UK). Relevant peptides were thereafter synthesized by GenScript (Piscataway, NJ, USA) and used for competition peptide-binding assays. […] Finally, peptide-binding affinity to the three different HLA alleles was assessed in direct binding assays in which N-terminally biotinylated epitopes (GenScript, Piscataway, NJ, USA) were incubated at concentrations from 5 to 0.05 μM with plate-bound relevant HLA-DRB1 molecules in the absence of a competitor peptide ([22]). The inflection point of the binding curve of a known binding epitope was used as a cutoff to separate weakly binding epitopes from background. […]

The target of test [2] is HLA-DRB1*01:01 (Homo sapiens, UniProt P01903+P01911, A100R/D57E/F55L/F60I/F76Y/I96L/L162R/M171V/P40L/Q125E/R42F/V115G/Y59C). Nature of the test: Competition peptide-binding assay, HLA-DRB1*01:01. As for the experimental part:
Stepwise binding analysis of 15-mer peptides derived from both native and citrullinated α-enolase to HLA-DRB1*01, *04:01, and *04:04 was performed using the ProImmune Class II Reveal assay (ProImmune, Oxford, UK). Relevant peptides were thereafter synthesized by GenScript (Piscataway, NJ, USA) and used for competition peptide-binding assays. […] Finally, peptide-binding affinity to the three different HLA alleles was assessed in direct binding assays in which N-terminally biotinylated epitopes (GenScript, Piscataway, NJ, USA) were incubated at concentrations from 5 to 0.05 μM with plate-bound relevant HLA-DRB1 molecules in the absence of a competitor peptide ([22]). The inflection point of the binding curve of a known binding epitope was used as a cutoff to separate weakly binding epitopes from background.
We decided to make use of HLA-DRB1*01:01 as a representative model for HLA-DRB1*01.

The target in test [3] is HLA-DRB1*04:01 (Homo sapiens, UniProt P01903+P01911, A100K/A169T/F76Y/I96L/K127E/L162R/M171V/N62H/P40V/Q125Y/R42H/S133A/S149N/S66Y/V115G/V209L/W38E). Briefly: biochemical.
The target of test [4] is HLA-DRB1*04:04 (plate-bound, peptide-binding assays) (human). Briefly: competition peptide-binding assay on plates.
Test [5] deals with HLA-DRB1*04:01 (plate-bound, peptide-binding assays) (human). Nature of the test: competition peptide-binding assay on plates.
The target in test [6] is HLA-DRB1*01:01 (plate-bound, peptide-binding assays) (human). Briefly: competition peptide-binding assay on plates.
The mark [7] stands for this setting: competition with 0.02 μM biotinylated GAD65 270–285, plate-bound HLA-DRB1*04:04, increasing peptide concentrations, read-out: IC50 *04:04.
Setting [8] is: competition with 0.02 μM biotinylated HA306–318, plate-bound HLA-DRB1*01:01, increasing peptide concentrations, read-out: IC50 *01:01.

`CC[C@H](C)[C@H](N)C(=O)N[C@@H](Cc1ccccc1)C(=O)N[C@@H](CC(=O)O)C(=O)N[C@@H](CO)C(=O)N[C@@H](CCCNC(N)=O)C(=O)NCC(=O)N[C@@H](CC(N)=O)C(=O)N1CCC[C@H]1C(=O)N[C@H](C(=O)N[C@H](C(=O)N[C@@H](CCC(=O)O)C(=O)N[C@@H](CC(=O)O)C(=O)N[C@H](C(=O)N[C@@H](CC(C)C)C(=O)N[C@@H](Cc1ccccc1)C(=O)O)C(C)C)C(C)C)[C@@H](C)O` [cit11] (H-IFDS[Cit]GNPTVEDVLF-OH): the figures for the IC50 in test [1] and in test [2] were 1700 nM and 25 µM, respectively.

As to `CC(C)C[C@H](NC(=O)CNC(=O)[C@H](CCCCN)NC(=O)[C@H](CO)NC(=O)[C@@H](N)[C@@H](C)O)C(=O)N[C@@H](Cc1ccccc1)C(=O)N[C@@H](CCCNC(N)=O)C(=O)N[C@@H](C)C(=O)N[C@@H](C)C(=O)N[C@H](C(=O)N1CCC[C@H]1C(=O)N[C@@H](CO)C(=O)NCC(=O)N[C@@H](C)C(=O)N[C@@H](CO)C(=O)O)C(C)C` [cit26] (H-TSKGLF[Cit]AAVPSGAS-OH), the IC50 in test [1] (setting [7]) was 500 nM; in test [2] (setting [8]) it was 1.9 µM; in test [3], 1500 nM.

As for `CC[C@H](C)[C@H](NC(=O)[C@@H](N)C(C)C)C(=O)NCC(=O)N[C@@H](CCSC)C(=O)N[C@@H](CC(=O)O)C(=O)N[C@H](C(=O)N[C@@H](C)C(=O)N[C@@H](C)C(=O)N[C@@H](CO)C(=O)N[C@@H](CCC(=O)O)C(=O)N[C@@H](Cc1ccccc1)C(=O)N[C@@H](Cc1ccccc1)C(=O)N[C@@H](CCCNC(N)=O)C(=O)N[C@@H](CO)C(=O)NCC(=O)O)C(C)C` [cit241] (H-VIGMDVAASEFF[Cit]SG-OH), the IC50 turned out to be 200 nM in test [1] (setting [7]), 42 µM in test [2] (setting [8]) and 2500 nM in test [3].

For `CC[C@H](C)[C@H](NC(=O)[C@H](CCCNC(N)=O)NC(=O)[C@@H](N)CCCCN)C(=O)N[C@@H](C)C(=O)N[C@@H](CCCCN)C(=O)N[C@@H](C)C(=O)N[C@H](C(=O)N[C@@H](CC(N)=O)C(=O)N[C@@H](CCC(=O)O)C(=O)N[C@@H](CCCCN)C(=O)N[C@@H](CO)C(=O)N[C@@H](CS)C(=O)N[C@@H](CC(N)=O)C(=O)N[C@@H](CS)C(=O)N[C@@H](CC(C)C)C(=O)O)C(C)C` [cit326] (H-K[Cit]IAKAVNEKSCNCL-OH), the results for the IC50 in test [1] (setting [7]) and in test [2] (setting [8]) were 700 nM and over 50 µM, respectively.

With `CC[C@H](C)[C@H](NC(=O)[C@H](Cc1c[nH]cn1)NC(=O)[C@H](CCC(=O)O)NC(=O)[C@@H](NC(=O)[C@H](C)NC(=O)[C@H](CCCCN)NC(=O)[C@H](CO)NC(=O)[C@@H](NC(=O)CNC(=O)[C@H](CCCCN)NC(=O)CNC(=O)[C@H](CCSC)NC(=O)[C@H](Cc1ccc(O)cc1)NC(=O)[C@@H](N)CCCNC(=N)N)C(C)C)C(C)C)C(=O)N[C@@H](CC(N)=O)C(=O)O` [compound 56] (H-RYMGKGVSKAVEHIN-OH; N-terminus and C-terminus assumed), the IC50 was over 50000 nM in test [1] (setting [7]) and over 50 µM in test [2] (setting [8]).

Take `CC[C@H](C)[C@H](NC(=O)[C@H](CCCNC(=N)N)NC(=O)[C@H](CCSC)NC(=O)[C@H](C)NC(=O)[C@H](CCC(=O)O)NC(=O)[C@H](CCCNC(=N)N)NC(=O)[C@H](Cc1ccccc1)NC(=O)[C@H](CC(N)=O)NC(=O)[C@H](C)NC(=O)[C@H](C)NC(=O)CNC(=O)[C@@H](NC(=O)[C@@H]1CCCN1C(=O)[C@@H](N)CC(C)C)C(C)C)C(=O)NCC(=O)O` [compound 171] (H-LPVGAANFREAMRIG-OH; N-terminus and C-terminus assumed): the values for the IC50 in test [1] (setting [7]) and in test [2] (setting [8]) were over 50000 nM and over 50 µM, respectively.

Regarding `CC[C@H](C)[C@H](NC(=O)[C@@H](N)C(C)C)C(=O)NCC(=O)N[C@@H](CCSC)C(=O)N[C@@H](CC(=O)O)C(=O)N[C@H](C(=O)N[C@@H](C)C(=O)N[C@@H](C)C(=O)N[C@@H](CO)C(=O)N[C@@H](CCC(=O)O)C(=O)N[C@@H](Cc1ccccc1)C(=O)N[C@@H](Cc1ccccc1)C(=O)N[C@@H](CCCNC(=N)N)C(=O)N[C@@H](CO)C(=O)NCC(=O)O)C(C)C` [compound 241] (H-VIGMDVAASEFFRSG-OH), the IC50 in test [1] (setting [7]) turned out to be 500 nM; in test [2] (setting [8]), 35 µM; in test [3], 2000 nM.

Regarding `CC[C@H](C)[C@H](N)C(=O)N[C@@H](Cc1ccccc1)C(=O)N[C@@H](CC(=O)O)C(=O)N[C@@H](CO)C(=O)N[C@@H](CCCNC(=N)N)C(=O)NCC(=O)N[C@@H](CC(N)=O)C(=O)N1CCC[C@H]1C(=O)N[C@H](C(=O)N[C@H](C(=O)N[C@@H](CCC(=O)O)C(=O)N[C@@H](CC(=O)O)C(=O)N[C@H](C(=O)N[C@@H](CC(C)C)C(=O)N[C@@H](Cc1ccccc1)C(=O)O)C(C)C)C(C)C)[C@@H](C)O` [peptide 11] (H-IFDSRGNPTVEDVLF-OH; N-terminus and C-terminus assumed), the IC50 in test [1] (setting [7]) is over 50000 nM; in test [2] (setting [8]) it was over 50 µM.

`CC[C@H](C)[C@H](NC(=O)[C@H](CCCNC(=N)N)NC(=O)[C@@H](N)CCCCN)C(=O)N[C@@H](C)C(=O)N[C@@H](CCCCN)C(=O)N[C@@H](C)C(=O)N[C@H](C(=O)N[C@@H](CC(N)=O)C(=O)N[C@@H](CCC(=O)O)C(=O)N[C@@H](CCCCN)C(=O)N[C@@H](CO)C(=O)N[C@@H](CS)C(=O)N[C@@H](CC(N)=O)C(=O)N[C@@H](CS)C(=O)N[C@@H](CC(C)C)C(=O)O)C(C)C` [peptide 326] (H-KRIAKAVNEKSCNCL-OH): the IC50 in test [1] (setting [7]) is 700 nM; in test [2] (setting [8]), over 50 µM.

Consider “α-enolase peptide Cit11 (residues 11–25), citrullinated”, for which the IC50 is 1700 nM in test [4], 2200 nM in test [5] and 25 µM in test [6].

Take KAKFAGRNFRNPLAK [α-enolase peptide 420 (residues 420–434), native]: the IC50 in test [4] was 25000 nM; in test [5], over 50000 nM; in test [6], over 50 µM.

LPVGAANF[Cit]EAM[Cit]IG [α-enolase peptide Cit171 (residues 171–185), citrullinated] yielded an IC50 in test [4] of over 50000 nM.

For TSKGLF[Cit]AAVPSGAS [α-enolase peptide Cit26 (residues 26–40), citrullinated], the IC50 is 500 nM in test [4], 1500 nM in test [5] and 1.9 µM in test [6].

On to KRIAKAVNEKSCNCL [α-enolase peptide 326 (residues 326–340), native], for which the half-inhibitory concentration (IC50) in test [4] is 700 nM; in test [5], 1700 nM; in test [6], over 50 µM.

With VIGMDVAASEFF[Cit]SG [α-enolase peptide Cit241 (residues 241–255), citrullinated], the IC50 in test [4] was 200 nM; in test [5], 2500 nM; in test [6], 42 µM.

Consider MSILKIHA[Cit]EIFDS[Cit] [α-enolase peptide Cit1 (residues 1–15), citrullinated], for which the IC50 is over 50000 nM in test [4] and over 50 µM in test [6].

In the case of TSKGLFRAAVPSGAS [α-enolase peptide 26 (residues 26–40), native], the half-maximal inhibitory concentration (IC50) was determined as 500 nM in test [4], 4000 nM in test [5] and 1.4 µM in test [6].

MSILKIHAREIFDSR [α-enolase peptide 1 (residues 1–15), native]: the IC50 in test [4] is over 50000 nM; in test [6] it was 3.5 µM.

Regarding KAKFAG[Cit]NF[Cit]NPLAK [α-enolase peptide Cit420 (residues 420–434), citrullinated], the IC50 is 28000 nM in test [4], over 50000 nM in test [5] and over 50 µM in test [6].

VIGMDVAASEFFRSG [α-enolase peptide 241 (residues 241–255), native]: the IC50 came out at 500 nM in test [4], 2000 nM in test [5] and 35 µM in test [6].

For K[Cit]IAKAVNEKSCNCL (cysteine pairing not given here) [α-enolase peptide Cit326 (residues 326–340), citrullinated], the IC50 in test [4] is 700 nM; in test [5], 1900 nM; in test [6] it was over 50 µM.

One may read the IC50 as the concentration that gives 50% inhibition.
